Assay results taken from PMC10754036 (Nature structural & molecular biology, 2018).

Target: PSD95, His tagged recombinant (UniProt P78352 1-724)
Test: BLI

PSD95, His tagged recombinant, sequence (P78352 whole entry): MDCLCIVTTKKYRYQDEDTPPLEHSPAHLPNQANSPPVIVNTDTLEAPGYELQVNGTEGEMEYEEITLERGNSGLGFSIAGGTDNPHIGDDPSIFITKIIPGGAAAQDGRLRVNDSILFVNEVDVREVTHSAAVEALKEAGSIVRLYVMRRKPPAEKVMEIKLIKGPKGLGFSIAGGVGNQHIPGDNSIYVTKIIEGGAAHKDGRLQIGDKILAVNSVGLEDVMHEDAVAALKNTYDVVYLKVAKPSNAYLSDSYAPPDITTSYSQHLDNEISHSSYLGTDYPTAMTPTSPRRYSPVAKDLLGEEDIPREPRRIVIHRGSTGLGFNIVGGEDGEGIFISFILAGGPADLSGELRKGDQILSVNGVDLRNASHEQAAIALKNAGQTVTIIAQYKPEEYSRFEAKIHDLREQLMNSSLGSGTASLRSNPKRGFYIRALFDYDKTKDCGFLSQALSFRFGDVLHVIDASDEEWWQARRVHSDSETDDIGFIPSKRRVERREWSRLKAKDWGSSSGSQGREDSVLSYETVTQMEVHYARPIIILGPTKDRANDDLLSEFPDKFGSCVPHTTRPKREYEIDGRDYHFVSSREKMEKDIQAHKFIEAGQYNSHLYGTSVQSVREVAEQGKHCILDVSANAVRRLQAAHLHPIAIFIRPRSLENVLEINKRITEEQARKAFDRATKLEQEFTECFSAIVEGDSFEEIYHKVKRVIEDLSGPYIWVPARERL

B1: NS1 of A/Brevig Mission/1/1918 (H1N1) influenza A virus, His tagged recombinant (natural protein)
chain: MDSNTVSSFQVDCFLWHVRKRFADQELGDAPFLDRLRRDQKSLRGRGSTLGLDIETATRAGKQIVERILKEESDEALKMTIASVPASRYLTDMTLEEMSRDWFMLMPKQKVAGSLCIRMDQAIMDKNIILKANFSVIFDRLETLILLRAFTEEGAIVGEISPLPSLPGHTDEDVKNAVGVLIGGLEWNDNTVRVSETLQRFAWRSSNENGRPPLPPKQKRKMARTIKSEV
With B1 as the binder, how does the Kd read?
Its Kd is 1600 nM.
